Results from the nanobody polyreactivity screen of Harvey et al. (2022).

Experiment: yeast display, Sf9 membrane polyspecificity reagent, FACS + sequencing; frameworks hold sequencing errors
Summary of the method: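 Genes from sorted yeast were amplified by colony PCR, read by MiSeq 2 × 250 sequencing and filtered on CDR length. These cells carried a synthetic nanobody library in Saccharomyces cerevisiae BJ5465 and were sorted by FACS into low and high (top ~1%) gates on anti-HA and streptavidin fluorescence. Polyreactivity is labelled according to the gate of origin.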

Sequence | polyreactivity (PSR sort gate)
QVQLVESGGGLVQAGGSLRLSCAASGRIFPDNAMGWYRQAHGKERELVAVITYSGGSTYYADSVKGRFTISRDNAKNTVYLQMNSLKPEDTAVYYCAARDYYIWFAEVDYWGQGTQVTVSS | low polyreactivity
QVQLVESGGGLVQAGGSLRLSCAASGRIFPDYAMGWYRQAPGKERELVAAISSSGGRTYYADSVKGRFTISRDNAKNTVYLQMNSLKPEDTAVYYCAARGSYTSIFDYWGQGTQVTVSS | high polyreactivity
QVQLVESGGGLVQAGGSLRLSCAASGRIFPFYAMGWYIQAPGKERELVAAISRSGRTNYADSVKGRFTISRDNAKNTVFLQMNSLKPEDTAVYYCNADYYLFDFDSWGQGTQVTVSS | low polyreactivity
QVQLVESGGGLVQAGGSLRLSCAASGRIFPFYAMVWYRQAPGKERELVAAITTSGGSTYYADSVKGRFTISRDNAKNTVYLQMNRLKPEDTAVYYCNKRLGLELAPWEMNYWGQGTQVTVSS | low polyreactivity
QVQLVESGGGLVQAGGSLRLSCAASGRIFPGYAMGWYRQAPGKEREFVAAITASGGTTYYADSVKGRFTISRDNAKNTVYLQMNSLKPEDTAVYYCAVYDWRYYLGKLMEYWGQGTQVTVSS | high polyreactivity
QVQLVESGGGLVQAGGSLRLSCAASGRIFPGYAMGWYRQAPGKERELVAAISKGGGSKYYADSVKGRFTISRDNAKNTVYLQMNSLKTEDTAVYYCAAQSYPRSYGLDYWGQGTQVTVSS | high polyreactivity
QVQLVESGGGLVQAGGSLRLSCAASGRIFPGYAMGWYRQAPGKERELVAAISTNGGRTYYADSVKGRFTISRDNAKNTVYLQMNSLKPEDTADYYCAAESAYDAYDYWGQGTQVTVSS | high polyreactivity
QVQLVESGGGLVQAGGSLRLSCAASGRIFPGYDMGWYRQAPGKERELVAAISASGGSTYYADSVKGRFTISRDNAKNTVYLQMNSLKPEDTAVYYCNAVYRLIRFDYWGQGTQVTVSS | high polyreactivity
QVQLVESGGGLVQAGGSLRLSCAASGRIFPGYVMGWYRQAHGKERELVAAITRGGSTYYADSVKGRFTISRDNAKNTVYLQMNSLKPEDTAVYYCAAKHSHIHYNYWGQGTQVTVSS | low polyreactivity
QVQLVESGGGLVQAGGSLRLSCAASGRIFPHYAMGWFRQAPGKERELVAAISSGGRTNYADSVKGRFTISRDNAKNTVYLQMNSLKREDSAVYYCAAEAPFYVIGRRYRGYDYWGQGTQVTVSS | high polyreactivity
QVQLVESGGGLVQAGGSLRLSCAASGRIFPHYTMGWYRQAPGKERELVATISGRGGSTYYADSVKGRFTISRDIAKNTVYLQMNSLKPEDTAVYYCAREGCRRYAGLYYWGQGTQVTVSS | high polyreactivity
QVQLVESGGGLVQAGGSLRLSCAASGRIFPKYAMGGDRQAPGTERPLVAAISSSGGSKYYADSVKGRFTISRDNAKNTVYFQMNSLKPEDTAVYYCNVDKATRDRYPGFDYWGQGTQVTVSS | high polyreactivity
QVQLVESGGGLVQAGGSLRLSCAASGRIFPKYTMGWYRQAPGKERELVASINSSGRTTYADSVKGRFTITRDNAKNTVYLQMNSLKPEDTAVYYCAKRVFSARGYGYWGQGTQVTVSS | low polyreactivity
QVQLVESGGGLVQAGGSLRLSCAASGRIFPPNAMGWYRQAPGKERELVAAITGSGGSTYYADSVKGRFTITRDNAKNTVYLQKNSLKPADTAVYYCAVESLGRVSRGYDYWGQGTQVTVSS | low polyreactivity
QVQLVESGGGLVQAGGSLRLSCAASGRIFPPYAMGWYRQAPGKERELVAAISSSTTSTYYADSVKGRFTISRDNAKNTVYLQMNSLKPEDTGVYYCAAQPYRAAFPYSSRRHLQYEYWGQGTQVTVSS | low polyreactivity
QVQLVESGGGLVQAGGSLRLSCAASGRIFPPYAMGWYRQAPGKERELVATISYTGGSTYYADSVKGRFTISRDNAKNTVYLQMNRLKPEDTAVYYCNAEYYYWNREGDYWGQGTQVTVSS | low polyreactivity
QVQLVESGGGLVQAGGSLRLSCAASGRIFPPYDMGWYRQATGKEREFVAAIDWTGGSTYYADSVKGRFTISRDNAKNTVYLQMNSLKPEDTAVYYCNAEQSYRGVGWRYDYWGQGTQVTVSS | low polyreactivity
QVQLVESGGGLVQAGGSLRLSCAASGRIFPQYAMGWSRQAPGKERELVAGITSVGSTYYADSVKGRFTISRDNAKNTVYLQMNSLKPEDTAVYYCAAVPSRYVRANRRTYRYYYWGQGTQVTVSS | high polyreactivity
QVQLVESGGGLVQAGGSLRLSCAASGRIFPRNAMGWYRQAPGKERELVAAISSGGGGTYYADSVKGRFTISRDNAKNTVYLQMNSLKPEDTAVYYCNAAYTYVTAWYYYWGQGTQVTVSS | high polyreactivity
QVQLVESGGGLVQAGGSLRLSCAASGRIFPRNTMGRYRQAPGKERELVAGITSGGGTYYADSVKGRFTISRDNAKNTVYFQMNRLKPEDTAVFYCAARPWRSRYYGGLGRRFDYWGQGTQVTVSS | high polyreactivity
QVQLVESGGGLVQAGGSLRLSCAASGRIFPRYAMGWYRQAPGKERELVATISSGGSTYYADSVKGRFTISRDNAKNTVYLQMNSLKPEDTAVYYCAARKRPYTVINGMDYWGQGTQVTVSS | low polyreactivity

Sequence | polyreactivity (PSR sort gate)
QVQLVESGGGLVQAGGSLRLSCAASGRIFPRYAMGWYRQAPGKERQLVAAITSGDSTHYADSVKGRFTISRDNAKNTVYLQMNSLKPEDTAVYYCAAKYPRYGRHAYGYWGQGTQVTVSS | high polyreactivity
QVQLVESGGGLVQAGGSLRLSCAASGRIFPSYAMGWYRQAPGKERELVAAISYSGASTYYADSVKGRFTISRDNAKNTVYLQMNSLKPEDTAVYYCYQLVEEDYWGLGTQVTVSS | low polyreactivity
QVQLVESGGGLVQAGGSLRLSCAASGRIFPTYAMGWYRQAPGKERELVAGITSGGRTNYADSVKGRFTISRDNAKNTVYLQMNSLKPEDTAVYYCAKRVWPRDQYGKRNPRMDYWGQGTQVTVSS | high polyreactivity
QVQLVESGGGLVQAGGSLRLSCAASGRIFPVNAMGWYRQAPGKEREFVARISRRGGSTYYADSVKGRFTISRDNAKNTVYLQMNSLKPEDTAVYYCAAVSSRYSYDYWGQGTQVTVSS | high polyreactivity
QVQLVESGGGLVQAGGSLRLSCAASGRIFPVYAMGWYRQAPGNERELVAAITSGVGSTYYADSVKGRFTISRDNAKNTVYLQMNSLKPEDTAVYYCAADSSYLTYWEYDYWGQGTQVTVSS | low polyreactivity
QVQLVESGGGLVQAGGSLRLSCAASGRIFPWNAMGWYRQAPGKDRELVAAISFSAGRTYYADSVKGRFTISRDNAKNTVYLQMNSLKPEDTAVYYCNARIGSPWVWTGIIGYEYWGQGTQVTVSS | low polyreactivity
QVQLVESGGGLVQAGGSLRLSCAASGRIFPWNAMGWYRQAPGKERDLVAAISFSAGRTYYADSVKGRFTISRDNAKNTVYLQMNSLKPEDTAVYYCNARIGSRWVWTGIIGYEYWGQGTQVTVSS | low polyreactivity
QVQLVESGGGLVQAGGSLRLSCAASGRIFPWYAMGWYRQAPGKEREVVAAIRWRGGGTYYADSVKGRFTISRDNAKNTVYLQMNSLKPEDTAVYYCAARRPANGMGYWGQGTQVTVSS | high polyreactivity
QVQLVESGGGLVQAGGSLRLSCAASGRIFPYKDMGWSRQAHGKEMELVAGISYSGGSTYYADSVKGRFTISRDNAKNTVYLQMNSLKPEDTAVYYCARDYSRHKGDYWGQGTQVTVSS | low polyreactivity
QVQLVESGGGLVQAGGSLRLSCAASGRIFPYYAMGWYRQAPGKERELVAAITTRGGSTYYADSVKGRFTISRDNAKNTVYLQMNSLKPEDTAVYYCAAVTFGRMEYWGQGTQVTVSS | low polyreactivity
QVQLVESGGGLVQAGGSLRLSCAASGRIFPYYDMGWYREAPGKERELVAAITWNGGSTYYADSVKGRFTISRDNAKNTVYLQMNSLKPADTAVYYCAVEPYYYGEDYWGQGTQVTVSS | low polyreactivity
QVQLVESGGGLVQAGGSLRLSCAASGRIFPYYDMGWYRQAPGKERELVAAITWNGGSTYYADSVKGRFTISRDNAKNTVFLQMNSLKPEDSAVYYCAVEPYYYGEDYWGQGTQVTVSS | low polyreactivity
QVQLVESGGGLVQAGGSLRLSCAASGRIFQFYAMGWYRQAPGKERELVASISASGARTYYADSVKGRFTISRDNAKNTVYLQMNSLNPEDTAVYYCNVVYFDGNPEDYEYWGKGTQVTVSS | high polyreactivity
QVQLVESGGGLVQAGGSLRLSCAASGRIFQGNAMGWYRQAPGKERELVAAITTSGGSTYYADSVKGRFTISRDNAKNTVYLQMNSLKPEDTAVYYCNVDPRKRSYDYWGQGTQVTVSS | high polyreactivity
QVQLVESGGGLVQAGGSLRLSCAASGRIFQGNAMGWYRQAPRKERELVAAISWRGGRTYYADSVKGRFTISRAYAKNTVYLQMNSLKPEDTAVYYCAAKAYREDEGYWGQGTQVTVSS | high polyreactivity
QVQLVESGGGLVQAGGSLRLSCAASGRIFQGYAKGWYRQAPGKERELVAAIRTGGSTNYADSVKGRFTISRDNAKNTVYLQMNSLKPEDTAVYYCNAVGQLYFYFPRGDYWGQGTQVTVSS | low polyreactivity
QVQLVESGGGLVQAGGSLRLSCAASGRIFQGYAMGWYRKAPGKERELVAAIRSGSGSTYYADSVKGRFTISRDNAKNTVYLQMNSLKPEDTAVYYCAADRYYWGQGTQVTVSS | low polyreactivity
QVQLVESGGGLVQAGGSLRLSCAASGRIFQGYAMGWYRQAPGKEREFVAVISTSGGRTSYADSVKGRFTISRDNAKNTVYLQMNSLKPEDTAVYYCNALYGRYGWSKNYYWGQGTQVTVSS | high polyreactivity
QVQLVESGGGLVQAGGSLRLSCAASGRIFQKYAMGWYRQAPGKERELVAAISSGDSTYADSVKGRFTISRDNAKNTVYLQMNSLKPEDTAVYYCAVDLYDPWWYSYIGEYEYWGQGTQVTVSS | low polyreactivity
QVQLVESGGGLVQAGGSLRLSCAASGRIFQKYAMGWYRQAPGKERELVAAISSGDSTYADSVKGRFTISRDNAKNTVYLQMNSLKPEDTAVYYCNREVPESQGFITPDGYCGQGTQVTVSS | low polyreactivity
